Test results taken from publication PMC2958309 (Journal of Molecular and Cellular Cardiology, 2010).
Changes are numbered by the printed parent chain. Like-named read-outs stand apart in the source and are kept apart here.

B1: NCX1 Calcium Binding Domain 2 (CBD2) (domain or fragment, Mus musculus, UniProt P70414 527-712, looked up)
chain: TIFDDDHAGIFTFEEPVTHVSESIGIMEVKVLRTSGARGNVIIPYKTIEGTARGGGEDFEDTCGEPEFQNDEIVKTISVKVIDDEEYEKNKTFFIEIGEPRLVEMSEKKALLLNELGGFTLTGKEMYGQPIFRKVHARDHPIPSTVITISEEYDDKQPLTSKEEEERRIAEMGRPILGEHTKLEVI
B2: NCX1 Calcium Binding Domain 1 (CBD1) (domain or fragment, Mus musculus, UniProt P70414 397-539, looked up)
chain: MAENDPVSKIFFEQGTYQCLENCGTVALTIMRRGGDLSTTVFVDFRTEDGTANAASDYEFTEGTVIFKPGETQKEIRVGIIDDDIFEEDENFLVHLSNVRVSSDVSEDGILESNHASSIACLGSPSTATITIFDDDHAGIFTF

Tests used:
Assay in all cases: SPR
[1] = target: T1, wild type sorcin (soluble resistance-related calcium binding protein) ( (human or Chinese hamster …, UniProt P05044 1-198))
T1 sequence (looked up): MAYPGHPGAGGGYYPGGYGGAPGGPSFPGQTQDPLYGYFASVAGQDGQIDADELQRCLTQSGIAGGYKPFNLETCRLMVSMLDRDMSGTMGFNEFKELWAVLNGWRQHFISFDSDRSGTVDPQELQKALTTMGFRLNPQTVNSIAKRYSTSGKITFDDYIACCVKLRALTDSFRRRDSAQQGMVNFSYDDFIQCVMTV

[2] = target: T1, wild type sorcin (soluble …); remark: listed apart in the source
[3] = target: T1, wild type sorcin (soluble …); remark: listed apart in the source
sorcin W105G variant = target: T2, sorcin W105G variant ( (human or Chinese hamster …, UniProt P05044 1-198, W105G))
T2 sequence (looked up): T1 sequence (looked up) with W105G

Binder	koff [1]	Kd [2]	koff [2]	kon [2]	Kd [3]	koff [3]	kon [3]	binding result (sorcin W105G variant)
B1	0.6 ± 0.2 s⁻¹	1 µM	0.05 ± 0.03 s⁻¹	50000 M⁻¹ s⁻¹	3 µM	0.24 ± 0.1 s⁻¹	80000 M⁻¹ s⁻¹	–
B2	0.9 ± 0.4 s⁻¹	1.2 µM	0.08 ± 0.1 s⁻¹	70000 M⁻¹ s⁻¹	7 µM	0.27 ± 0.1 s⁻¹	40000 M⁻¹ s⁻¹	binds
